Nine molecules from patent US10119980B2, “Method for detection of basic peptide and reagent for detection of basic peptide” (SYSMEX CORPORATION, priority 2009, dated 2018) can be followed below.

The target of test [1] is T1, heat-denatured BSA (Bos taurus, UniProt P02769).
T1 construct: purchased Sigma-Aldrich
In words: Turbidity (OD550) measurement and Hill plot analysis of peptides mixed with heat-denatured BSA reagent. The test is classed as binding, bovine. Particulars: for change in OD550 with increasing peptide concentration: peptide mixed with heat-denatured BSA, final 0.2 w/v %; for Hill coefficient n: Example 5, peptide 0 to 80 μM. The protocol: A partial dynorphin A peptide consisting of amino acids of positions 1 to 13 of dynorphin A (SEQ ID NO: 2; Peptide Institute, Inc.) was used as the basic peptide of interest. A neutral peptide, α-endorphin (SEQ ID NO: 3; Peptide Institute, Inc.) was also used as a comparative peptide of interest. These peptides were dissolved in ultrapure water to prepare samples containing respective peptides (1.0 mg/ml).
The denatured BSA solution prepared in the above (1) (50 μl) was mixed with the respective samples prepared in (2) followed by addition of ultrapure water to prepare a total volume of 250 μl of mixed solutions containing respective peptides. In the preparation, the sample was mixed so as to obtain a final concentration of the respective peptides in the mixed solutions of 0 to 150 μM.
The thus-prepared mixed solutions were measured for OD550 in the similar manner as Example 1.
A fragment of kininogen (positions 439 to 457 (SEQ ID NO: 4); synthesized at Biologica Co.) and a fragment of ITIH4 (positions 611 to 642 (SEQ ID NO: 5); synthesized at Biologica Co.) which were known as cancer metastasis markers were used as basic peptides of interest. These peptides were dissolved in ultrapure water to prepare samples containing respective peptides (1.0 mg/ml).
The denatured BSA solution prepared in the above (1) (50 μl) was mixed with the respective samples prepared in (2) followed by addition of ultrapure water to prepare a total volume of 250 μl of mixed solutions containing respective peptides. In the preparation, the sample was mixed so as to obtain a final concentration of the respective peptides in the mixed solutions of 0 to 80 μM.
The thus-prepared mixed solutions were measured for OD550 in the similar manner as Example 1. The Kd value and Hill coefficient were calculated for the respective samples.
Besides a basic peptide, to be studied for comparison, a neutral peptide Fibrinogen α (SEQ ID NO: 6; Biological Co.) and acidic peptides C3f (SEQ ID NO: 7; Biologica Co.) and Factor XIII (SEQ ID NO: 8; Biologica Co.) were prepared. These peptides were dissolved in ultrapure water to prepare samples containing respective peptides (1.0 mg/ml).
The denatured BSA solution prepared in the above (1) (50 μl) was mixed with the respective samples prepared in (2) followed by addition of ultrapure water to prepare a total volume of 250 μl of mixed solutions containing the respective peptides. In the preparation, the sample was mixed with the heat-denatured BSA solution so as to obtain a final concentration of the respective peptides in the mixed solutions of 0 to 80 μM.

Test [2] addresses T2, partial ACTH peptide (positions 1 to 24 of ACTH) (Homo sapiens, UniProt P01189).
T2 construct: consisting of the amino acids of positions 1 to 24 of ACTH
The test can be described thus: Turbidity (OD550) measurement and Hill plot analysis of albumin reagents mixed with partial ACTH peptide. The test is classed as binding. The settings on record: for change in OD550 with increasing partial ACTH peptide concentration: albumin reagent mixed with partial ACTH peptide. The protocol:
BSA (Sigma-Aldrich) was dissolved in Milli-Q® water (Millipore) to prepare a BSA solution (1.0 w/v %). The BSA solution was divided into two and one was designated as a non-denatured BSA solution and the other was autoclaved at 110° C. for 15 minutes to obtain a heat-denatured BSA solution.
A partial ACTH peptide (Peptide Institute, Inc.) consisting of the amino acids of positions 1 to 24 of ACTH was used as the basic peptide of interest. The peptide was dissolved in ultrapure water to prepare a sample containing the basic peptide of interest (1.0 mg/ml).
The heat-denatured BSA solution prepared in the above (1) (50 μl) was mixed with the sample prepared in (2) followed by addition of ultrapure water to prepare a total volume of 250 μl of a mixed solution (final concentration of heat-denatured BSA: 0.2 w/v %). In this preparation, the sample was mixed so as to obtain a final concentration of the partial ACTH peptide in the mixed solution of 0 to 150 μM. A comparative mixed solution was also prepared in the similar manner except that the non-denatured BSA solution was used instead of the heat-denatured BSA solution.
The thus-prepared mixed solutions were measured for absorbance at the wavelength of 550 nm (OD550) in a spectrophotometer UV-2500PC (Shimadzu Corporation). The obtained results were subjected to Hill plot analysis with KaleidaGraph (HULINKS, Inc.) to calculate the values of Kd and the Hill coefficient of heat-denatured BSA and non-denatured BSA.
BSA (Sigma-Aldrich) was dissolved in Milli-Q® water (Millipore) to prepare a BSA solution (1.0 w/v %). The BSA solution was divided into five aliquots among which one was designated as a non-denatured BSA solution (heat denaturation period: 0 min) and the rest of four were heated in an autoclave at 110° C. for 5, 15, 60 and 120 min, respectively, to obtain heat-denatured BSA solutions.
The Kd value and Hill coefficient of BSA at respective heat denaturation periods were calculated. […]
The Kd value and Hill coefficient were calculated for the mixed solutions. […]

The mark [3] stands for this setting: Example 1, final BSA 0.2 w/v %, peptide 0 to 150 μM, OD550 Hill plot.
Where [4] appears, read: Example 6, albumin autoclaved at 115° C. for 15 minutes, final 0.2 w/v %, peptide 0 to 80 μM.

Ends that are not written are not given here.

T2 sequence (P01189 138-161): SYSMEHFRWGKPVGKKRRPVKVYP
T1 sequence (P02769 25-607): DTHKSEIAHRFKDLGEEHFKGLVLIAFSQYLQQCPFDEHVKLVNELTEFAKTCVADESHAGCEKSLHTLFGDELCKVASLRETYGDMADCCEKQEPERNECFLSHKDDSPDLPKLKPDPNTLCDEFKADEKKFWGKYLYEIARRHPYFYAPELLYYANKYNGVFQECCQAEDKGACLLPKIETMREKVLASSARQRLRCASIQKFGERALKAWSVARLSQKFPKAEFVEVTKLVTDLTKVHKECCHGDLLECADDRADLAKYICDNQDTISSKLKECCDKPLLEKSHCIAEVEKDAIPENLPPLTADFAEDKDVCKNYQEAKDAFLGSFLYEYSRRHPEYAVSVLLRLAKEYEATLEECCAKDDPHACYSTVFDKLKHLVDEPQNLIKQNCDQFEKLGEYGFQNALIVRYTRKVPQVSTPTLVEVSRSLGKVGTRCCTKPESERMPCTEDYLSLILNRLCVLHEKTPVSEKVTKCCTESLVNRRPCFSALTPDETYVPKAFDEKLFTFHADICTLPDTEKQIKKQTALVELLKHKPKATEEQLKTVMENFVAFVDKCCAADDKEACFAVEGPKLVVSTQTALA

Consider `CC[C@H](C)[C@H](NC(=O)[C@H](CCCNC(=N)N)NC(=O)[C@H](CCCNC(=N)N)NC(=O)[C@H](CC(C)C)NC(=O)[C@H](Cc1ccccc1)NC(=O)CNC(=O)CNC(=O)[C@@H](N)Cc1ccc(O)cc1)C(=O)N[C@@H](CCCNC(=N)N)C(=O)N1CCC[C@H]1C(=O)N[C@@H](CCCCN)C(=O)N[C@@H](CC(C)C)C(=O)N[C@@H](CCCCN)C(=O)O` [partial dynorphin A peptide], for which, in test [1], the Kd is 30 µM and the “change in OD550 with increasing peptide concentration” value is reported as “increased in a concentration dependent manner”. This molecule also had a Hill coefficient in test [1] (Example 4, peptide 0 to 150 μM, OD550 Hill plot) of 8.
For the molecule “C3f: acidic peptide C3f (SEQ ID NO: 7) (HWESASLL; listed as Homo sapiens)”, the “change in OD550 with increasing peptide concentration” value in test [1] is “no change in OD550”.
Same read-out and setting: with “Factor XIII: acidic peptide Factor XIII (SEQ ID NO: 8) (AVPPNNSNAAEDDLPTVELQGVVPR; listed as Homo sapiens)” the entry was “no change in OD550”; with “Fibrinogen α: neutral peptide Fibrinogen α (SEQ ID NO: 6) (DEAGSEADHEGTHSTKRGHAKSRPV; listed as Homo sapiens)”, “no change in OD550”.
In test [1] (OD550 Hill plot), “GESRNRNVHSGSTFFKYYLQGAKIPKPEASFS [ITIH4 (611-642)]” registered a Hill coefficient n of 9. Also, in test [1], the “change in OD550 with increasing peptide concentration” value was “increased in a peptide concentration dependent manner”.
The matching figures for “HNLGHGHKHERDQGHGHQR [Kininogen (439-457)]”: 8 and “increased”.
With “Non-denatured BSA: BSA (Sigma-Aldrich) solution 1.0 w/v %, not heated; comparative reagent [reference compound]”, the Hill coefficient n in test [2] (setting [3]) and in test [2] (heat denaturation period 0 min) was 1 each time. Also, the Kd in test [2] (setting [3]) and in test [2] (heat denaturation period 0 min) was 290 µM throughout. For the same molecule, the entries for the “change in OD550 with increasing partial ACTH peptide concentration” value in test [2] and in test [2] (listed as BSA solution that was heat-denatured for 0 min) were “significant change in the value of OD550 was not observed” and “not changed”, respectively.
On to “α-endorphin (YGGFMTSEKSQTPLVT; listed as Homo sapiens)”, for which the “change in OD550 with increasing peptide concentration” value in test [1] is given as “no change in OD550”.

B1: Heat-denatured OA: ovoalbumin solution (1.0 w/v %), pH 5 to 7, autoclaved at 115° C. for 15 minutes (protein)
chain: GSIGAASMEFCFDVFKELKVHHANENIFYCPIAIMSALAMVYLGAKDSTRTQINKVVRFDKLPGFGDSIEAQCGTSVNVHSSLRDILNQITKPNDVYSFSLASRLYAEERYPILPEYLQCVKELYRGGLEPINFQTAADQARELINSWVESQTNGIIRNVLQPSSVDSQTAMVLVNAIVFKGLWEKAFKDEDTQAMPFRVTEQESKPVQMMYQIGLFRVASMASEKMKILELPFASGTMSMLVLLPDEVSGLEQLESIINFEKLTEWTSSNVMEERKIKVYLPRMKMEEKYNLTSVLMAMGITDVFSSSANLSGISSAESLKISQAVHAAHAEINEAGREVVGSAEAGVDAASVSEEFRADHPFLFCIKHIATNAVLFFGRCVSP
On to B1, for which, in test [2] (setting [4]), the Hill coefficient n turned out to be 3 and the Kd is 67 µM. Moreover, in test [2] (Example 6, albumin autoclaved at 115° C. for 15 minutes, final 0.2 w/v %, peptide 0 to 80 μM, listed as heat-denatured OA), the Hill coefficient n was 11. The “change in OD550 with increasing partial ACTH peptide concentration” value in test [2] is reported as “increase in a manner dependent on the concentrations of the basic peptide”.

Broadly, the Kd is a measure of binding affinity in units of concentration. Read a low Kd as tighter binding. The term Hill coefficient denotes the slope factor of the fitted curve.
